Experimental data from patent US20240409906, “INTEGRASES, LANDING PAD ARCHITECTURES, AND ENGINEERED CELLS COMPRISING THE SAME” (Asimov Inc., published 2024).

What was measured:
Test in all cases: cell_activity; attB x attP EGFP inversion reporter, HEK293FT
Int34 = target: T1, Int34 (Staphylococcus lugdunensis HKU09-01); conditions: tags: C-terminal GS linker-SV40 NLS; chain copies: 4
T1 chain: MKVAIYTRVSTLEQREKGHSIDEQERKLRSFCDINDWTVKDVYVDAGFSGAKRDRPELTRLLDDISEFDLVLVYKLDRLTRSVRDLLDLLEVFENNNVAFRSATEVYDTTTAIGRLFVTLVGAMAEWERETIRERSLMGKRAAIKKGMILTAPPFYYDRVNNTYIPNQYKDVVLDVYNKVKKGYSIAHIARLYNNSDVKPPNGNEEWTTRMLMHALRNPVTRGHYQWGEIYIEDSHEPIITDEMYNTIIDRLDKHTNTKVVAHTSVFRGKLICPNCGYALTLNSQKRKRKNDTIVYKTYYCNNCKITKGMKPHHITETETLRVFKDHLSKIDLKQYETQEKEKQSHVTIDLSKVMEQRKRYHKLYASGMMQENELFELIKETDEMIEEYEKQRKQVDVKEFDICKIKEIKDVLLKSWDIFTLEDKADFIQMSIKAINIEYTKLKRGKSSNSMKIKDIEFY

Int27 = target: T2, Int27 (Lactococcus lactis subsp. lactis CV56); conditions: tags: C-terminal GS linker-SV40 NLS
T2 chain: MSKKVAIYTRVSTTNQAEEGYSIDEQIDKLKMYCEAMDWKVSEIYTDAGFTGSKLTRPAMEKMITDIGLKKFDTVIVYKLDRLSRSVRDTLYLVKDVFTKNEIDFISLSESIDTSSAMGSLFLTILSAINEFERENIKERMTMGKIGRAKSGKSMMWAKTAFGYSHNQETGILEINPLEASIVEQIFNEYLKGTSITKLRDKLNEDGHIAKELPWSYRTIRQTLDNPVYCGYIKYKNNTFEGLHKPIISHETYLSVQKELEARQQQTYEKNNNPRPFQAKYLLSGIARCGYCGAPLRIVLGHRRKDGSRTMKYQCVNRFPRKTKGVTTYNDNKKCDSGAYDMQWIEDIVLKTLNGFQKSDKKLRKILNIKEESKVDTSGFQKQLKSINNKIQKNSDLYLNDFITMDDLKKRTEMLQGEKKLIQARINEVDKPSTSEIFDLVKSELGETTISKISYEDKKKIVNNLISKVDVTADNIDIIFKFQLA

Int7 = target: T3, Int7 (Geobacillus sp. Y412MC61); conditions: tags: C-terminal GS linker-SV40 NLS
T3 chain: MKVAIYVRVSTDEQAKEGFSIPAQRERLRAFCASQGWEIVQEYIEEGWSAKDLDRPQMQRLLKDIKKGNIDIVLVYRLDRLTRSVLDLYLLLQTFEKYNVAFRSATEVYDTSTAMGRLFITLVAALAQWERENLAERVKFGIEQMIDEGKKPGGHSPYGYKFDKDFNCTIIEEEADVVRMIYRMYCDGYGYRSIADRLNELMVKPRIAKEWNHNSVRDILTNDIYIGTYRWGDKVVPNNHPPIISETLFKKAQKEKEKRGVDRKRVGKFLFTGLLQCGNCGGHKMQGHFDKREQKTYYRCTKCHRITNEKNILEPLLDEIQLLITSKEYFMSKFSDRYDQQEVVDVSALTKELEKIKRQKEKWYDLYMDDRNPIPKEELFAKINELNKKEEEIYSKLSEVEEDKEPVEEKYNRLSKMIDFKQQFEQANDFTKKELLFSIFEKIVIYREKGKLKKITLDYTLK

Int5 = target: T4, Int5 (Streptomyces phage PhiK38-1); conditions: tags: C-terminal GS linker-SV40 NLS
T4 chain: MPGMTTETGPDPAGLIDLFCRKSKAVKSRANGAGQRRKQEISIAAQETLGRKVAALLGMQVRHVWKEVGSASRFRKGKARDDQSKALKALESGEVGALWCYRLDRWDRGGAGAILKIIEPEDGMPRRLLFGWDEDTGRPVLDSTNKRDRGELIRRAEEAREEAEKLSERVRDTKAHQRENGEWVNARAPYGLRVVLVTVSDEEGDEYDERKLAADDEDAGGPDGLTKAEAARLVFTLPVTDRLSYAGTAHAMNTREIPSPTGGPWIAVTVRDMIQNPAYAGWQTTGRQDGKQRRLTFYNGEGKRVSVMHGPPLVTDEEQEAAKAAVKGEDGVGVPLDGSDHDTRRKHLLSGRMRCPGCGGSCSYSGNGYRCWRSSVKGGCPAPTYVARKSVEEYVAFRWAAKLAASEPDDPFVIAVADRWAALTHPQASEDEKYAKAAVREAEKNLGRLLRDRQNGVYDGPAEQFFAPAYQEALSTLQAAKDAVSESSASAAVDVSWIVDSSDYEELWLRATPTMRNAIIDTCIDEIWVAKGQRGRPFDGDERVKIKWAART

Int32 = target: T5, Int32 (Rhodococcus jostii RHA1); conditions: tags: C-terminal GS linker-SV40 NLS; chain copies: 4
T5 chain: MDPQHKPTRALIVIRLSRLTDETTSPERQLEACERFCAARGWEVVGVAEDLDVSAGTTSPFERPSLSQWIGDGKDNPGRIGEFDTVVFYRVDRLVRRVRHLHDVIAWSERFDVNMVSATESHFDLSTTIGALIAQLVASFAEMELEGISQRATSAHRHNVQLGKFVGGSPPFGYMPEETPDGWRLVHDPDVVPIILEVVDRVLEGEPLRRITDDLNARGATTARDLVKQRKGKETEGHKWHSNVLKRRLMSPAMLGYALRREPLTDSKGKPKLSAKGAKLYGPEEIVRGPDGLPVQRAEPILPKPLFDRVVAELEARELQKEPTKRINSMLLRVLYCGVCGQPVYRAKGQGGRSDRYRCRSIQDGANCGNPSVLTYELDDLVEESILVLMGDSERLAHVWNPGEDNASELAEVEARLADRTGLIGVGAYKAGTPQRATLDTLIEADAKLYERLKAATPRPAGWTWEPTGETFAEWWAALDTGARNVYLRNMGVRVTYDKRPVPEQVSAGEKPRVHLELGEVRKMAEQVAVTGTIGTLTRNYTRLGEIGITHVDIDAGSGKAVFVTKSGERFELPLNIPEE

B1: Int34 attP (dsDNA)
DNA 1: ATTTTTGTACGGAAGTAGATACTATCTTTCAATATCCATGTTACTTAGTGCCATACAAAAA
DNA 2: TTTTTGTATGGCACTAAGTAACATGGATATTGAAAGATAGTATCTACTTCCGTACAAAAAT
binding signal (Int34): 0.408 fraction of Bxb1

B2: Int27 attB (dsDNA)
DNA 1: AATACTAATAATAGCTAGTACAATTAACATCTCTATCAAAGTAAAAGCTTTTAGCTCTTTCT
DNA 2: AGAAAGAGCTAAAAGCTTTTACTTTGATAGAGATGTTAATTGTACTAGCTATTATTAGTATT
binding signal (Int27): 2.2 fraction of Bxb1

B3: Int7 attB (dsDNA)
DNA 1: AGACGAGAAACGTTCCGTCCGTCTGGGTCAGTTGGGCAAAGTTGATGACCGGGTCGTCCGTT
DNA 2: AACGGACGACCCGGTCATCAACTTTGCCCAACTGACCCAGACGGACGGAACGTTTCTCGTCT
binding signal (Int7): 0.096 fraction of Bxb1

B4: Int5 attB (dsDNA)
DNA 1: GAGCGCCGGATCAGGGAGTGGACGGCCTGGGAGCGCTACACGCTGTGGCTGCGGTCGGTGC
DNA 2: GCACCGACCGCAGCCACAGCGTGTAGCGCTCCCAGGCCGTCCACTCCCTGATCCGGCGCTC
binding signal (Int5): 0.152 fraction of Bxb1

B5: Int7 attP (dsDNA)
DNA 1: GTGTTATAAACCTGTGTGAGAGTTAAGTTTACATGCCTAACCTTAACTTTTACGCAGGTTCAGCTT
DNA 2: AAGCTGAACCTGCGTAAAAGTTAAGGTTAGGCATGTAAACTTAACTCTCACACAGGTTTATAACAC
binding signal (Int7): 0.096 fraction of Bxb1

B6: Int34 attB (dsDNA)
DNA 1: AATCTGCAAACATGTATGGCGGTACATGTATCAACATTGGTTGTATTCCTACAAAGACACTCAT
DNA 2: ATGAGTGTCTTTGTAGGAATACAACCAATGTTGATACATGTACCGCCATACATGTTTGCAGATT
binding signal (Int34): 0.408 fraction of Bxb1

B7: Int32 attB (dsDNA)
DNA 1: ATCGCGCAGAACGGTGCGGTGATCAGTGAGTACGCACCGGGCACGACACCGGCGAAGCATCG
DNA 2: CGATGCTTCGCCGGTGTCGTGCCCGGTGCGTACTCACTGATCACCGCACCGTTCTGCGCGAT
binding signal (Int32): 0.137 fraction of Bxb1

B8: Int5 attP (dsDNA)
DNA 1: CCCTAATACGCAAGTCGATAACTCTCCTGGGAGCGTTGACAACTTGCGCACCCTGATCTG
DNA 2: CAGATCAGGGTGCGCAAGTTGTCAACGCTCCCAGGAGAGTTATCGACTTGCGTATTAGGG
binding signal (Int5): 0.152 fraction of Bxb1

B9: Int32 attP (dsDNA)
DNA 1: CTATGTGGTGGTAATAGCGAGTAGGGGACTACTCGCTCCAGGTACATTAACACCATGGA
DNA 2: TCCATGGTGTTAATGTACCTGGAGCGAGTAGTCCCCTACTCGCTATTACCACCACATAG
binding signal (Int32): 0.137 fraction of Bxb1
